Data: the nanobody polyreactivity screen of Harvey et al. (2022)

Test: yeast display, Sf9 membrane polyspecificity reagent, FACS + sequencing; frameworks hold sequencing errors
In short: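 Galactose-induced (36–48 hours) yeast carrying a synthetic nanobody display library were exposed to 10% biotinylated, detergent-solubilized Sf9 membrane reagent at 4 °C for 1 hour. FACS followed streptavidin microbead enrichment, using low and high (top ~1%) gates for expression (anti-HA) and reagent binding (streptavidin). Colony PCR, MiSeq 2 × 250 sequencing and CDR-length filtering followed. Labels for polyreactivity reflect the gate of origin.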

QVQLVESGGGLVQAVGSLRLSCAASGLTFYPNAMGWYRQAPGKERQFVDSISISGRTYYADSVKGRFTISRDNAKNTVYLQMNSLKPEDTAVYYCAARYVRSGLYRKYDYWGQGTQVTVSS
polyreactivity (PSR sort gate): high polyreactivity

QVQLVESGGGLVQAGGSLRLSCAASGSIFDIYAMGWYRPAPGKERELVAAISLSAGSTYYADSVKGRFTISRDNAKNTVYLQMNSLKPEDTAVYYCNADGWYGYWGQGTQVTVSS
polyreactivity (PSR sort gate): low polyreactivity

QVQLVESGVGLVQAGGSLRLSCAASGSTFGGNAMGWYRQAPWKERELVADITFSGGSTSYAHSVKGSFTISRDNAKNTVYLLMNRLKPEDTAVYYCNRDYPEIIVAGLDFWGQGTQLTVSS
polyreactivity (PSR sort gate): low polyreactivity

QVQLVESGGGLVQAGGSLRLSCAASGYTIYQYAMGWYRQAPRKERELVAAISSDASTSYADSVKGRFTISRDNAKNTVYLQMNSLKPEDTAVYYCAADPGPYYDWGYDYWGQGTQVTVSS
polyreactivity (PSR sort gate): low polyreactivity

QVQLVESGGGLVQAGGSLRLSCAASGRTFPRNAMGWYRQAPGKERELVAAITTSGGRTYYADSVKGRFTISRDNAKNTVYLQMNSLKPEDTAVYYCAVRYDTLAWYAFYYWGQGTQVTVSS
polyreactivity (PSR sort gate): low polyreactivity

QVQLVESGGGLVQAGGSLRLSCAASGRIFYGNAMGWYRQAPGKERELVAAISKRGGSTHYADSVKGRFTISRDNAKNPVYLQMNSLKPEDTAVDYCATDSYYVGAVHYYYWGQGTQVTVSS
polyreactivity (PSR sort gate): high polyreactivity

QVQLIESGGGLDQAGGSLRLSCAASGFIFWEYAMGWYRQAPGKERELVAGISTSGGSTYYADSVKGLFTISRDNAKNTVYLQMNSLKPEDTAVYYCAVEGWDDTYFRQDMDYWGQGTQVTVSS
polyreactivity (PSR sort gate): low polyreactivity

QVQLVESGGGLVQAGGSLRLSCAASGFTFYTYAMGWYRPAPGKERELVATITIGDGSTYYADSVKGRFTISRDNAKNTVYLQMNSLKPEDTAVYYCNRDSVGYDYWGQGSQVTVSS
polyreactivity (PSR sort gate): low polyreactivity

QVQLVESGGGLVQAGGRLRLSCAASGFTFSYNTMGWYRQEPGKERELVAAITGDVSTNYADSVKGRFTISRDNAKNTVYLQMNSVKPEDTAVYYCAARPNFPGYEDLSVDYDYWGQGTQVTVSS
polyreactivity (PSR sort gate): low polyreactivity

QVQLVESGGGLVQAGGSLRLSCAASGRNFYYNAMGWYRQAPGKERELVAVISGRGGSTYYADSVKGRFTISRDNAKNTVYLQMNSLKPEDTAVYYCAAGYTRPWRFTYYYWGQGTQVTVSS
polyreactivity (PSR sort gate): high polyreactivity

QVQLVETGGGLVQAGGSLSLSCAASGSTFAYYAMGWYRQAPGKERELVAGITWTGGSTYYADSVKGRFTISRDNAKNTVYLQMNSLKPEDTAVYYCAVTYPYGYEYDHWGQGTQVTVSS
polyreactivity (PSR sort gate): low polyreactivity

QVQLVESGGGLVQAGGSLRLSCAASGSIFYYNTMGWYRQAPGKERELVAAIRSSSGRTYYADSVKGRFTISRDNAKNTVYLQMNSLKPEDTAVYYCATVHSYTIQRYDYWGQGTQVTVSS
polyreactivity (PSR sort gate): high polyreactivity

QVQLVESGGGLVQAGGSLRLSWAASGSTFAWYAMGWYRQAPGKDRELVATISSGGSTYYADSVKGRFTISRDNAKNTVYLQMNSLKTEDTAVYYCAADYLTPWVYWFSYGLDYWGQGTQVTVSS
polyreactivity (PSR sort gate): low polyreactivity

QVQLVESGGGLVQAGGSLRLSCAASGRTFPVNVMGWYRQAPGKERELVAAITWSGDSTYYADSVKGRFTISRDNAKNTVYLQMNSVKPEDTAVYYCATDYSGLRYDYWGQGTQVTVSS
polyreactivity (PSR sort gate): low polyreactivity

QVQLVESCGGLVQEGGSLRLSCAASGRIFVVSAMGRYRQAPGKERELVAAISKRGGSTYYADSVKGRFTISRDNAKKTVYLQMNSLKPEDTAVYYCAKSRLVRGRSSYDYWGHGTQVTVSS
polyreactivity (PSR sort gate): high polyreactivity

QVQLVESGGGLVQAGGSLRLSCAASGRIFYSYAMGWYRQAPGKERELVAAISFSVGSTYYADSVKGRFTISRDNAKNTVYLQMNSLKPEDTAVYYCATGWYYTSTTYRSSDFDYWGQGTQVTVSS
polyreactivity (PSR sort gate): low polyreactivity

QVQLVESGGGLVQAGGSLRLSCAASGRTLFTIAMGWYRQAPGKERELLAAISIGGTTYYADSVKGRFTISRDYAKNTVYLQMNSLKPEDTAVYYCNKVRRFHSEYGYWGQGTQVTVSS
polyreactivity (PSR sort gate): high polyreactivity

QVQLVESGGGLVQAGGSLRLSCAASGFIFTGYAMGWYRQAPGKERELVATISRRGGSTYYADSVKGRFTISRDNAKNTVYLQMNSLKPEDTAVYYCAAQRTLYRSGFDSWGQGTQVTVSS
polyreactivity (PSR sort gate): high polyreactivity

QDQLVESGGGLVQAGGSLRLSCAASGSIFPGYAMGWYRKAPGKEREFVATITWSGGSTYYADSVKGRFTISRDNAKNTVYLQMNSLKPEDTAVYYCNADSNWYYQWNYYGLYDYWGQGTQVTVSS
polyreactivity (PSR sort gate): low polyreactivity

QVQLVESGGGLVQAGGSLRLSCAASGRTFKPYAMGWYRQAPGKERELVAAISTRGGSTYADSVKGRFTISRDNAKNTVYLQMNSLKPEDTAVYSCAAVYYRASARKFGYWGQGTQVTVSS
polyreactivity (PSR sort gate): low polyreactivity

QVQLVESGGGLVQAGGSLRLSSAASGRIFYKYVMGWYRQATGKERELVATITSGGSTYYADSVKGRFTISRDNAKNTVYLQMNSLKPEDTAVFYCAARKYYSRAYDYWGQGTQVTVSS
polyreactivity (PSR sort gate): high polyreactivity

QVQLVESGGGLVQAGGSLRLSCAASGRIVVGYAMGWYRQAPGKERELVAAINRSGSSTYYADSVKGRFTISRDNAKNTVYLQMNSLKPEDTAVYYCNARSGNRYGPRYDYWGQGTQVTVSS
polyreactivity (PSR sort gate): high polyreactivity

QVQLVESGGGLGQAGGSLRLSCAASGSIFYYYAMGWYRQAPGKERELVAGINSGDSTYYADSVKGRFTISRDNAKNTVYLQMNRLKPEDTAVYYCAASADGWYEYWGQGTQVTVSS
polyreactivity (PSR sort gate): low polyreactivity

QVQLVESGGGLVQAGGSLRLSCAASGSIFYLNAMGWYRQAPGQERELVASISNGGSTNYADSVKGRFTISRDNAKHTVYLQMNSLKPEVTAVYYCAADYVVSAFDYWGQGTQLTVSS
polyreactivity (PSR sort gate): low polyreactivity

QVQLVESGGGLVQAGGSLRLSCAASGFTFGSNAMGWYRQAPGKERELVAAINYSGVRTYYADSVKGRFTISRDNAKNTVYLQMNSLKPEDTAVSYCAKKRSKPISFDYWGQGTQVTVSS
polyreactivity (PSR sort gate): high polyreactivity

QVQLVESGGGLVQAGGSLRLSCAASGFTFNRYAMGWYRQAPGKERELVAAISARGGITYYADSVKGRFTISRDNAKNTVYLQMNSLKPEDTAVYYCNKRYSSWSGEHDYWGQGTQVTVSS
polyreactivity (PSR sort gate): high polyreactivity

QVQLVESGGGLVQAGGSLRLSCAASGRNFKHYAMGWYRQAPGKERELVAAISYSGGSPKYADSVKGRFTISRYNAMNTVYLQMNSLKPEDTAVYYCAARFFTPFRFSYDYWGQGTQVTVSS
polyreactivity (PSR sort gate): high polyreactivity

QVQLVESGGGLVQAGGSLRLSCAASGRIFYRYAMGWYRQAPGKERELVAAISSGGSTYADSVKGRFTISRDNAKNTVYLQMNSLKPEDTAVYFCAARLYTYPKGKYWGQGTQVTVSS
polyreactivity (PSR sort gate): high polyreactivity

QVQLVESGGGLVQAGGSLRLSCASSGPIFAYNAIPGYRQAPGKERELVADISSGGNTYYADSVKGRFTISRDNAKNTVYLQMNSLKPEDTAVYYCAADIAWYTHDHRIFDYWGQGTQVTVSS
polyreactivity (PSR sort gate): low polyreactivity

QVQLVESGGGLVQAGCSLRLSCDASGSIFTWYAIGWYRQAPGKERELVAAITRGGSTYADSVKGRFTISRDNAKNNVYLQMNSLKPEDSAVYYCAARRVPIRVGGYPYYYWGQGSQVTVSS
polyreactivity (PSR sort gate): low polyreactivity

QVQLVESGGGLVQAGGSLRLSCAASGSSFSWNAMGWYSQAPGKERELVAAISKRGTSTYYADSVKGRFTISRDNAKKTVYLQMNSLKPEDTAVYYCAARRYYGVYYAFYYWGQGTQVTVSS
polyreactivity (PSR sort gate): high polyreactivity

QVQLVESGGGLFQAGGSLRLSCAASGFTCSGYAMGWYRPAPGKERELVAGISASAGSTYADSVKGRFTISRDNAKNTVYLQMNSLKPEDTAVYYCAADLSFKAAIWFNEYGYWGQGTQVTVSS
polyreactivity (PSR sort gate): low polyreactivity
